Measurements: patent US20160272683A1 (Novo Nordisk, published 2016)
Numbered stars: 1 amine (or outer) side, 2 acyl side, 3 side chain; on linkers, the order of the positions; unused ones are H or OH. * marks the point of attachment. C18 diacid = O=C(O)CCCCCCCCCCCCCCCCC(=O)*; γGlu = O=C(O)[C@H](CCC(=O)[*:2])N[*:1]

T1: human amylin 3(a) receptor (human calcitonin receptor co-expressed with RAMP-3) (human, UniProt P30988 25-474; O60896 24-148, limits assumed)
T1 sequence (looked up) 1: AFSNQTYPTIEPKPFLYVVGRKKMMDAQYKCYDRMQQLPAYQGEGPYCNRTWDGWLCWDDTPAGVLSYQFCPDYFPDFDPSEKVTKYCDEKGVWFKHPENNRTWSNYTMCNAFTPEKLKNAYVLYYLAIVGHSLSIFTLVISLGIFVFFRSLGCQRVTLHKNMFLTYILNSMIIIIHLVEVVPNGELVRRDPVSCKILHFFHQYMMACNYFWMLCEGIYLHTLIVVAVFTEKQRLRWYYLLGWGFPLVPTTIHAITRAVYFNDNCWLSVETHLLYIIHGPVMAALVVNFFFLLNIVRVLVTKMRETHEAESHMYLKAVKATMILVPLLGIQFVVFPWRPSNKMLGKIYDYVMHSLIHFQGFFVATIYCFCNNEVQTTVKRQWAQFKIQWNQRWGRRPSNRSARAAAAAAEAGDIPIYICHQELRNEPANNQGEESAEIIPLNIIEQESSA
T1 sequence (looked up) 2: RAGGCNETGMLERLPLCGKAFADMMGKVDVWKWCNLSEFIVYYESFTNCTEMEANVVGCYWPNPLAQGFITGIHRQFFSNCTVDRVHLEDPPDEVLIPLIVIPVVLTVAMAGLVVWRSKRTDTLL

T2: human calcitonin receptor (human, UniProt P30988 25-474)
T2 sequence (looked up): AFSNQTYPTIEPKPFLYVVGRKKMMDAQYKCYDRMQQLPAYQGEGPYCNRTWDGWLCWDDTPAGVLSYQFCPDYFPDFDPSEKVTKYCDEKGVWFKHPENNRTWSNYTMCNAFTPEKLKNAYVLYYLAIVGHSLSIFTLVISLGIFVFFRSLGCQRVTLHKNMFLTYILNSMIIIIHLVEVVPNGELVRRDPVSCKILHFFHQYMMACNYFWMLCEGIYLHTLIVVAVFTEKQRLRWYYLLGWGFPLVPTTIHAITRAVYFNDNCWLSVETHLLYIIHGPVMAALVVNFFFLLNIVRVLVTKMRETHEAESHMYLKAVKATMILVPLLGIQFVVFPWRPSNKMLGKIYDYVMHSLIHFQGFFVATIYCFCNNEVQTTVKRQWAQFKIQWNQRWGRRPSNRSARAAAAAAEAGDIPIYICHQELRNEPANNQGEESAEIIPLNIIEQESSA


Legend:
[1] = target: T1, human amylin 3(a) receptor (human …); assay: cell-based or functional assay
[2] = target: T2, human calcitonin receptor; assay: cell-based or functional assay

hAmylin-R funct. EC50 (pM) [1] [pM] | hCTR funct. EC50 (pM) [2] [pM] | Binder
9 | 4 | {C18 diacid-γGlu}-ASELSTAALGRLSAELHELATLPRTETGSESP-NH2 (SMILES CC(C)C[C@H](NC(=O)[C@H](C)NC(=O)[C@H](C)NC(=O)[C@@H](NC(=O)[C@H](CO)NC(=O)[C@H](CC(C)C)NC(=O)[C@H](CCC(=O)O)NC(=O)[C@H](CO)NC(=O)[C@H](C)NC(=O)CC[C@H](NC(=O)CCCCCCCCCCCCCCCCC(=O)O)C(=O)O)[C@@H](C)O)C(=O)NCC(=O)N[C@@H](CCCNC(=N)N)C(=O)N[C@@H](CC(C)C)C(=O)N[C@@H](CO)C(=O)N[C@@H](C)C(=O)N[C@@H](CCC(=O)O)C(=O)N[C@@H](CC(C)C)C(=O)N[C@@H](Cc1c[nH]cn1)C(=O)N[C@@H](CCC(=O)O)C(=O)N[C@@H](CC(C)C)C(=O)N[C@@H](C)C(=O)N[C@H](C(=O)N[C@@H](CC(C)C)C(=O)N1CCC[C@H]1C(=O)N[C@@H](CCCNC(=N)N)C(=O)N[C@H](C(=O)N[C@@H](CCC(=O)O)C(=O)N[C@H](C(=O)NCC(=O)N[C@@H](CO)C(=O)N[C@@H](CCC(=O)O)C(=O)N[C@@H](CO)C(=O)N1CCC[C@H]1C(N)=O)[C@@H](C)O)[C@@H](C)O)[C@@H](C)O) [[N-terminal(C18 diacid-gGlu), des1, 30S]mimylin]
20 | 14 | {C18 diacid}-EASEVSTAVLGRLSAELHELATLPRTETGPESP-NH2 (SMILES CC(C)C[C@H](NC(=O)[C@H](CCC(=O)O)NC(=O)[C@H](Cc1c[nH]cn1)NC(=O)[C@H](CC(C)C)NC(=O)[C@H](CCC(=O)O)NC(=O)[C@H](C)NC(=O)[C@H](CO)NC(=O)[C@H](CC(C)C)NC(=O)[C@H](CCCNC(=N)N)NC(=O)CNC(=O)[C@H](CC(C)C)NC(=O)[C@@H](NC(=O)[C@H](C)NC(=O)[C@@H](NC(=O)[C@H](CO)NC(=O)[C@@H](NC(=O)[C@H](CCC(=O)O)NC(=O)[C@H](CO)NC(=O)[C@H](C)NC(=O)[C@H](CCC(=O)O)NC(=O)CCCCCCCCCCCCCCCCC(=O)O)C(C)C)[C@@H](C)O)C(C)C)C(=O)N[C@@H](C)C(=O)N[C@H](C(=O)N[C@@H](CC(C)C)C(=O)N1CCC[C@H]1C(=O)N[C@@H](CCCNC(=N)N)C(=O)N[C@H](C(=O)N[C@@H](CCC(=O)O)C(=O)N[C@H](C(=O)NCC(=O)N1CCC[C@H]1C(=O)N[C@@H](CCC(=O)O)C(=O)N[C@@H](CO)C(=O)N1CCC[C@H]1C(N)=O)[C@@H](C)O)[C@@H](C)O)[C@@H](C)O) [[N-terminal(C18 diacid), 5V, 9V]mimylin]
8 | 7 | {C18 diacid}-EPSELSTAVLGRLSAELHELATLPRTETGPESP-NH2 (SMILES CC(C)C[C@H](NC(=O)[C@H](CCC(=O)O)NC(=O)[C@H](Cc1c[nH]cn1)NC(=O)[C@H](CC(C)C)NC(=O)[C@H](CCC(=O)O)NC(=O)[C@H](C)NC(=O)[C@H](CO)NC(=O)[C@H](CC(C)C)NC(=O)[C@H](CCCNC(=N)N)NC(=O)CNC(=O)[C@H](CC(C)C)NC(=O)[C@@H](NC(=O)[C@H](C)NC(=O)[C@@H](NC(=O)[C@H](CO)NC(=O)[C@H](CC(C)C)NC(=O)[C@H](CCC(=O)O)NC(=O)[C@H](CO)NC(=O)[C@@H]1CCCN1C(=O)[C@H](CCC(=O)O)NC(=O)CCCCCCCCCCCCCCCCC(=O)O)[C@@H](C)O)C(C)C)C(=O)N[C@@H](C)C(=O)N[C@H](C(=O)N[C@@H](CC(C)C)C(=O)N1CCC[C@H]1C(=O)N[C@@H](CCCNC(=N)N)C(=O)N[C@H](C(=O)N[C@@H](CCC(=O)O)C(=O)N[C@H](C(=O)NCC(=O)N1CCC[C@H]1C(=O)N[C@@H](CCC(=O)O)C(=O)N[C@@H](CO)C(=O)N1CCC[C@H]1C(N)=O)[C@@H](C)O)[C@@H](C)O)[C@@H](C)O) [[N-terminal(C18 diacid), 2P, 9V]mimylin]
8 | 4 | {C18 diacid}-EASELSTALAGRLSAELHELATLPRTETGPESP-NH2 (SMILES CC(C)C[C@H](NC(=O)[C@H](C)NC(=O)[C@@H](NC(=O)[C@H](CO)NC(=O)[C@H](CC(C)C)NC(=O)[C@H](CCC(=O)O)NC(=O)[C@H](CO)NC(=O)[C@H](C)NC(=O)[C@H](CCC(=O)O)NC(=O)CCCCCCCCCCCCCCCCC(=O)O)[C@@H](C)O)C(=O)N[C@@H](C)C(=O)NCC(=O)N[C@@H](CCCNC(=N)N)C(=O)N[C@@H](CC(C)C)C(=O)N[C@@H](CO)C(=O)N[C@@H](C)C(=O)N[C@@H](CCC(=O)O)C(=O)N[C@@H](CC(C)C)C(=O)N[C@@H](Cc1c[nH]cn1)C(=O)N[C@@H](CCC(=O)O)C(=O)N[C@@H](CC(C)C)C(=O)N[C@@H](C)C(=O)N[C@H](C(=O)N[C@@H](CC(C)C)C(=O)N1CCC[C@H]1C(=O)N[C@@H](CCCNC(=N)N)C(=O)N[C@H](C(=O)N[C@@H](CCC(=O)O)C(=O)N[C@H](C(=O)NCC(=O)N1CCC[C@H]1C(=O)N[C@@H](CCC(=O)O)C(=O)N[C@@H](CO)C(=O)N1CCC[C@H]1C(N)=O)[C@@H](C)O)[C@@H](C)O)[C@@H](C)O) [[N-terminal(C18 diacid), 9L, 10A]mimylin]
7 | 6 | {C18 diacid}-EASELSTAVIGRLSAELHELATLPRTETGPESP-NH2 (SMILES CC[C@H](C)[C@H](NC(=O)[C@@H](NC(=O)[C@H](C)NC(=O)[C@@H](NC(=O)[C@H](CO)NC(=O)[C@H](CC(C)C)NC(=O)[C@H](CCC(=O)O)NC(=O)[C@H](CO)NC(=O)[C@H](C)NC(=O)[C@H](CCC(=O)O)NC(=O)CCCCCCCCCCCCCCCCC(=O)O)[C@@H](C)O)C(C)C)C(=O)NCC(=O)N[C@@H](CCCNC(=N)N)C(=O)N[C@@H](CC(C)C)C(=O)N[C@@H](CO)C(=O)N[C@@H](C)C(=O)N[C@@H](CCC(=O)O)C(=O)N[C@@H](CC(C)C)C(=O)N[C@@H](Cc1c[nH]cn1)C(=O)N[C@@H](CCC(=O)O)C(=O)N[C@@H](CC(C)C)C(=O)N[C@@H](C)C(=O)N[C@H](C(=O)N[C@@H](CC(C)C)C(=O)N1CCC[C@H]1C(=O)N[C@@H](CCCNC(=N)N)C(=O)N[C@H](C(=O)N[C@@H](CCC(=O)O)C(=O)N[C@H](C(=O)NCC(=O)N1CCC[C@H]1C(=O)N[C@@H](CCC(=O)O)C(=O)N[C@@H](CO)C(=O)N1CCC[C@H]1C(N)=O)[C@@H](C)O)[C@@H](C)O)[C@@H](C)O) [[N-terminal(C18 diacid), 9V, 10I]mimylin]
10 | 7 | {C18 diacid}-EASEISTAILGRLSAELHELATLPRTETGPESP-NH2 (SMILES CC[C@H](C)[C@H](NC(=O)[C@H](C)NC(=O)[C@@H](NC(=O)[C@H](CO)NC(=O)[C@@H](NC(=O)[C@H](CCC(=O)O)NC(=O)[C@H](CO)NC(=O)[C@H](C)NC(=O)[C@H](CCC(=O)O)NC(=O)CCCCCCCCCCCCCCCCC(=O)O)[C@@H](C)CC)[C@@H](C)O)C(=O)N[C@@H](CC(C)C)C(=O)NCC(=O)N[C@@H](CCCNC(=N)N)C(=O)N[C@@H](CC(C)C)C(=O)N[C@@H](CO)C(=O)N[C@@H](C)C(=O)N[C@@H](CCC(=O)O)C(=O)N[C@@H](CC(C)C)C(=O)N[C@@H](Cc1c[nH]cn1)C(=O)N[C@@H](CCC(=O)O)C(=O)N[C@@H](CC(C)C)C(=O)N[C@@H](C)C(=O)N[C@H](C(=O)N[C@@H](CC(C)C)C(=O)N1CCC[C@H]1C(=O)N[C@@H](CCCNC(=N)N)C(=O)N[C@H](C(=O)N[C@@H](CCC(=O)O)C(=O)N[C@H](C(=O)NCC(=O)N1CCC[C@H]1C(=O)N[C@@H](CCC(=O)O)C(=O)N[C@@H](CO)C(=O)N1CCC[C@H]1C(N)=O)[C@@H](C)O)[C@@H](C)O)[C@@H](C)O) [[N-terminal(C18 diacid), 5I, 9I]mimylin]
8 | 5 | {C18 diacid}-EASELSTAALGRLSAELHELATLPRTETGPESP-NH2 (SMILES CC(C)C[C@H](NC(=O)[C@H](C)NC(=O)[C@H](C)NC(=O)[C@@H](NC(=O)[C@H](CO)NC(=O)[C@H](CC(C)C)NC(=O)[C@H](CCC(=O)O)NC(=O)[C@H](CO)NC(=O)[C@H](C)NC(=O)[C@H](CCC(=O)O)NC(=O)CCCCCCCCCCCCCCCCC(=O)O)[C@@H](C)O)C(=O)NCC(=O)N[C@@H](CCCNC(=N)N)C(=O)N[C@@H](CC(C)C)C(=O)N[C@@H](CO)C(=O)N[C@@H](C)C(=O)N[C@@H](CCC(=O)O)C(=O)N[C@@H](CC(C)C)C(=O)N[C@@H](Cc1c[nH]cn1)C(=O)N[C@@H](CCC(=O)O)C(=O)N[C@@H](CC(C)C)C(=O)N[C@@H](C)C(=O)N[C@H](C(=O)N[C@@H](CC(C)C)C(=O)N1CCC[C@H]1C(=O)N[C@@H](CCCNC(=N)N)C(=O)N[C@H](C(=O)N[C@@H](CCC(=O)O)C(=O)N[C@H](C(=O)NCC(=O)N1CCC[C@H]1C(=O)N[C@@H](CCC(=O)O)C(=O)N[C@@H](CO)C(=O)N1CCC[C@H]1C(N)=O)[C@@H](C)O)[C@@H](C)O)[C@@H](C)O) [[N-terminal(C18 diacid)]mimylin]
